Assay results: patent US20160136234A1

Legend:
Experiment in all cases: cell-based or functional assay
[1] = molecular target: AMPKα2 (h) (human) (UniProt P54646)
[2] = molecular target: CDK2/cyclinE (h) (human) (UniProt P24941)
[3] = molecular target: CHK2(R145W) (h) (human) (UniProt O96017)
[4] = molecular target: DAPK2 (h) (human) (UniProt Q9UIK4)
[5] = molecular target: T1, DRAK1 (h) (human) (UniProt Q9UEE5)
T1 sequence (looked up): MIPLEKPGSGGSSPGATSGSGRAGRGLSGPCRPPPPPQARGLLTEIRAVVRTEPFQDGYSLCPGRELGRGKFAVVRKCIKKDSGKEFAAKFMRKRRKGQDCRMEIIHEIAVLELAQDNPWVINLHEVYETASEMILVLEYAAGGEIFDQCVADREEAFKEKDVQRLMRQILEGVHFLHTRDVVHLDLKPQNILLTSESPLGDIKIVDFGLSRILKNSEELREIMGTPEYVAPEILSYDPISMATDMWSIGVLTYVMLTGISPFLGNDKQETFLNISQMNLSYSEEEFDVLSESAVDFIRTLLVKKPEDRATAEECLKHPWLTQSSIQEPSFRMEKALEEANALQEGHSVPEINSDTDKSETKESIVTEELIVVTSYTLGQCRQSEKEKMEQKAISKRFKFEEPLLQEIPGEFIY

[6] = molecular target: T2, Fms (h) (human) (UniProt P07333)
T2 sequence (looked up): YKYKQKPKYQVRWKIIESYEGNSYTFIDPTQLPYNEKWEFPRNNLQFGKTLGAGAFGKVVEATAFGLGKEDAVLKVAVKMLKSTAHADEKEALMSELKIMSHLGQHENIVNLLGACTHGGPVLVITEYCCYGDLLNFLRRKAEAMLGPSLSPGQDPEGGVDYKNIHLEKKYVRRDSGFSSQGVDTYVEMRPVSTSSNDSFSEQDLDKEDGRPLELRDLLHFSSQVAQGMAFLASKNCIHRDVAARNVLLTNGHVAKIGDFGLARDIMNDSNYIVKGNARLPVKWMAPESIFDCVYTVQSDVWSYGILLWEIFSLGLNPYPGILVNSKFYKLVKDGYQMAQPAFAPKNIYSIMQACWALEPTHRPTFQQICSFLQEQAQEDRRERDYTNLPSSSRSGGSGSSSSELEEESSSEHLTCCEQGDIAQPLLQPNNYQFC

[7] = molecular target: MARK1 (h) (human) (UniProt Q9P0L2)
[8] = molecular target: Mnk2 (h) (human) (UniProt Q9HBH9)
[9] = molecular target: PKA (h) (human) (UniProt P17612)
[10] = molecular target: T3, PhKγ2 (h) (human) (UniProt P15735)
T3 sequence (looked up): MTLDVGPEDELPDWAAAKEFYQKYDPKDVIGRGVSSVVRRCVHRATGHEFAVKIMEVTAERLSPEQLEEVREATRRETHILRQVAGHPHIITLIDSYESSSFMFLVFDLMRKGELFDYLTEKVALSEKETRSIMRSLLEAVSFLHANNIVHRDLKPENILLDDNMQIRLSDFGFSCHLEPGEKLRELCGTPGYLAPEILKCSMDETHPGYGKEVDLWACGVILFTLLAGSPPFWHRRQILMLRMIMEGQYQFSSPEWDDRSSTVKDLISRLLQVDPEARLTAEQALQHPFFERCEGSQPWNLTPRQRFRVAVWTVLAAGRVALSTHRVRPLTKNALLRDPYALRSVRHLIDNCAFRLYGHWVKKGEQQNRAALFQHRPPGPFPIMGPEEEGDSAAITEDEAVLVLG

[11] = molecular target: Src(1-530) (h) (human) (UniProt P12931)
[12] = molecular target: TrkA (h) (human) (UniProt P04629)
[13] = molecular target: T4, Txk (h) (human) (UniProt P42681)
T4 sequence (looked up): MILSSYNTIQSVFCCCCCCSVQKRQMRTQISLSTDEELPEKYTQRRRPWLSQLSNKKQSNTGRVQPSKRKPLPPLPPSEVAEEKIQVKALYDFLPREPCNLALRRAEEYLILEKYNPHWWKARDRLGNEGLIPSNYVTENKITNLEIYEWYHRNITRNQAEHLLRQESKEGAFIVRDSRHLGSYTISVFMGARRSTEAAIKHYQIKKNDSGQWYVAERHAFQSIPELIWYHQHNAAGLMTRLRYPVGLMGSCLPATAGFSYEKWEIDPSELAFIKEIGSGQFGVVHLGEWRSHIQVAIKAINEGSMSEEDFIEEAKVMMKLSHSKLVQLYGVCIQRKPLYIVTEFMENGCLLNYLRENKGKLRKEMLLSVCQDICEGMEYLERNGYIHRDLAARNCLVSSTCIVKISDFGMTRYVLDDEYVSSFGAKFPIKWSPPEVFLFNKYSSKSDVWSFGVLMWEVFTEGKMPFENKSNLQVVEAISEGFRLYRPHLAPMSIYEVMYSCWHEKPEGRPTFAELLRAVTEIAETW

[14] = molecular target: T5, eEF-2K (h) (human) (UniProt O00418)
T5 sequence (looked up): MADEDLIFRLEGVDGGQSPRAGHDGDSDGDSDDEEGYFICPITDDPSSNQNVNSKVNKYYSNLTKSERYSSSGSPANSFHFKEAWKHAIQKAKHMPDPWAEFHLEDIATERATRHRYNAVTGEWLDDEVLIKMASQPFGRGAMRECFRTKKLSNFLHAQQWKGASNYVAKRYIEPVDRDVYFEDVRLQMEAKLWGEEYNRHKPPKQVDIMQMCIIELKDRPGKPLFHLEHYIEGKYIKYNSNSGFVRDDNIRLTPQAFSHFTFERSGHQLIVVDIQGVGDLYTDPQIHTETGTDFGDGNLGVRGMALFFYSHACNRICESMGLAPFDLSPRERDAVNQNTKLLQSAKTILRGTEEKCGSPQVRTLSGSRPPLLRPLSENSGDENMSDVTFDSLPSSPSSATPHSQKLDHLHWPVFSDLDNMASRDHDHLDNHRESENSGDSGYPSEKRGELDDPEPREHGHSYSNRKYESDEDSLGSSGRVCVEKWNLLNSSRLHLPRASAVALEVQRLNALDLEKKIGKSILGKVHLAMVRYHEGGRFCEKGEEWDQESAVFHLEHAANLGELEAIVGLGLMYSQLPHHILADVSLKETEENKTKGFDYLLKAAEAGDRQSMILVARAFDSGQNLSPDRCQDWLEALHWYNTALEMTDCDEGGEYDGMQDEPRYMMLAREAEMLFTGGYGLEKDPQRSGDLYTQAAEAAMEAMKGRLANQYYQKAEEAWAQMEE

Chain of CHK2(R145W) (h) (human) (O96017 5-543 R145W limits assumed): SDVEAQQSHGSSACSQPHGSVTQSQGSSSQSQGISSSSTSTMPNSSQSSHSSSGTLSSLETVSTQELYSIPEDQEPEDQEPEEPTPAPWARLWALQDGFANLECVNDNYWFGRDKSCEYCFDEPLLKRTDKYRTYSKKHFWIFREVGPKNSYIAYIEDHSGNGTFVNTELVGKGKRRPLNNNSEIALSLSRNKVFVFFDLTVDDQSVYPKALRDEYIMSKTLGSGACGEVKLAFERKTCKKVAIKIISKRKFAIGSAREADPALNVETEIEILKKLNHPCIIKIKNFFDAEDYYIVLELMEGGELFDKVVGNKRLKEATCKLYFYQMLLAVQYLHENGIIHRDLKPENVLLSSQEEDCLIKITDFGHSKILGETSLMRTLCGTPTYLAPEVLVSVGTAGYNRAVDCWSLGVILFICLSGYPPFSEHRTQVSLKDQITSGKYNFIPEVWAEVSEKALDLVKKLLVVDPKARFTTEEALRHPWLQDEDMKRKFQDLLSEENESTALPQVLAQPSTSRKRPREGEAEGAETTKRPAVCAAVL

% activity at 100 µM [1]: 54% | % activity at 100 µM [2]: 94% | % activity at 100 µM [3]: 33% | % activity at 100 µM [4]: 32% | % activity at 100 µM [5]: 14% | % activity at 100 µM [6]: 45% | % activity at 100 µM [7]: 132% | % activity at 100 µM [8]: 89% | % activity at 100 µM [9]: 119% | % activity at 100 µM [10]: 46% | % activity at 100 µM [11]: 23% | % activity at 100 µM [12]: 25% | % activity at 100 µM [13]: 48% | % activity at 100 µM [14]: 91%
Substance: MMI-0300 (peptide)
